Experimental data: PMC10879482

Experiments:
[1] = molecular target: human SIDT1 (hSIDT1) (human) (UniProt Q9NXL6); assay: cryo-EM structure; hSIDT1 at pH 7.5 (hSIDT1^pH7.5); cholesteryl hemisuccinate in the buffer during membrane solubilization; homodimer
[2] = molecular target: human SIDT1 (hSIDT1) (human) (UniProt Q9NXL6); assay: cryo-EM structure; hSIDT1 at pH 5.5 (hSIDT1^pH5.5); homodimer, dimer interface rearranged against pH 7.5

- stoichiometry N [1]: 2
- stoichiometry N [2]: 2
Substance: human SIDT1 (hSIDT1) (from UniProt Q9NXL6 20-827) (natural protein)
